Experiments:
SPAG9, O60271-2 [1] = target: SPAG9, O60271-2
SPAG9, O60271-2 [2] = target: SPAG9, O60271-2; remark: listed apart in the source

Chain of SPAG9, O60271-2 (O60271 other isoform, or with tags, fused parts or gaps): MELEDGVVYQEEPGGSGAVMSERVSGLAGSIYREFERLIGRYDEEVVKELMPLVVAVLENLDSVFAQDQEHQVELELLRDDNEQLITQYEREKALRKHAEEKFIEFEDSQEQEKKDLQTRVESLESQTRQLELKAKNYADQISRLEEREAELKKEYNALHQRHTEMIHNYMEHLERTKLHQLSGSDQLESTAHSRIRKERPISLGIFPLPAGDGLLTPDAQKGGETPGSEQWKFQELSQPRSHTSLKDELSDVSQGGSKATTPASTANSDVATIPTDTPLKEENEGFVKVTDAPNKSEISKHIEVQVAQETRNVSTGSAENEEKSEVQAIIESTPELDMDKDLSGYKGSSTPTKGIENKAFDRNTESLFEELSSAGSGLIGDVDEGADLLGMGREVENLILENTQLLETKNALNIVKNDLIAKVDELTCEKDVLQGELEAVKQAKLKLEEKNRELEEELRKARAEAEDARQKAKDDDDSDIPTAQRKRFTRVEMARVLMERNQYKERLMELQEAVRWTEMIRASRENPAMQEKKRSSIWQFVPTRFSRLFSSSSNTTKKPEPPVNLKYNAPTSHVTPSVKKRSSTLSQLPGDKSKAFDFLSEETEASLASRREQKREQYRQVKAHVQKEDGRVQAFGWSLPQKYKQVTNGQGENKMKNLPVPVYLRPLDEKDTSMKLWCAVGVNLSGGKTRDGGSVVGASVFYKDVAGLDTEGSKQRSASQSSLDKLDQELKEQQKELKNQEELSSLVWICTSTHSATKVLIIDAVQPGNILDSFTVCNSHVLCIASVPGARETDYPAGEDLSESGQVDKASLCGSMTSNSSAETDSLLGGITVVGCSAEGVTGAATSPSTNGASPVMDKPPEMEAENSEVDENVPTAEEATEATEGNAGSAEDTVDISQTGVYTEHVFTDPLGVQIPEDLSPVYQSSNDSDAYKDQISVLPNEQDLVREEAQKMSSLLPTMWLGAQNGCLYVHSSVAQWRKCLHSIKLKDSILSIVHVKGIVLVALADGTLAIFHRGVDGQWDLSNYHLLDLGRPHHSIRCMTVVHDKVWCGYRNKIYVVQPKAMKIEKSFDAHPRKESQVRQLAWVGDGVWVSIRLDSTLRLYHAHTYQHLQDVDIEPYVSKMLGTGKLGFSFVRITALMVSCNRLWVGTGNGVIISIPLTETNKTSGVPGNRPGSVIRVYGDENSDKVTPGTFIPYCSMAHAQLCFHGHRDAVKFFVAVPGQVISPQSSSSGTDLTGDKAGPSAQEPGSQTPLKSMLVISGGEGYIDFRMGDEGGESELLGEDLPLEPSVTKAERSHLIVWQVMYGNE
Chain of ADP-ribosylation factor 1 (Homo sapiens), P84077 S62K (P84077 whole entry S62K): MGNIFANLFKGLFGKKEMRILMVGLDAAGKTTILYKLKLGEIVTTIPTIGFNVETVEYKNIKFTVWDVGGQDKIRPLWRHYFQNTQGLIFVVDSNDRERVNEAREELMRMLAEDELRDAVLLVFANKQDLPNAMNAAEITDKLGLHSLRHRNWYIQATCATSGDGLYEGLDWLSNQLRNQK
Chain of ADP-ribosylation factor 1 (Homo sapiens), P84077 E57T (P84077 whole entry E57T): as the sequence (P84077 whole entry S62K) above, with E57T, K62S counted along it

Substance	effect of a mutation on the interaction (SPAG9, O60271-2 [1])	effect of a mutation on the interaction (SPAG9, O60271-2 [2])
ADP-ribosylation factor 1 (Homo sapiens), P84077 Q83T	increasing interaction	
ADP-ribosylation factor 1 (Homo sapiens), P84077 S62K		increasing interaction
ADP-ribosylation factor 1 (Homo sapiens), P84077 T64N		increasing interaction
ADP-ribosylation factor 1 (Homo sapiens), P84077 E57T	increasing interaction	
